Usually Kd stands for the free concentration of one partner at which half of the binding sites on the other are occupied at equilibrium, for simple one-to-one binding. A low value points to higher affinity.

The text below walks through data of PMC12441119 (2025).

In assay [1] the target is T1, STK4 (residues 1–326) K59R N239A (human, UniProt Q13043 1-326, K59R | N239A).
T1 sequence: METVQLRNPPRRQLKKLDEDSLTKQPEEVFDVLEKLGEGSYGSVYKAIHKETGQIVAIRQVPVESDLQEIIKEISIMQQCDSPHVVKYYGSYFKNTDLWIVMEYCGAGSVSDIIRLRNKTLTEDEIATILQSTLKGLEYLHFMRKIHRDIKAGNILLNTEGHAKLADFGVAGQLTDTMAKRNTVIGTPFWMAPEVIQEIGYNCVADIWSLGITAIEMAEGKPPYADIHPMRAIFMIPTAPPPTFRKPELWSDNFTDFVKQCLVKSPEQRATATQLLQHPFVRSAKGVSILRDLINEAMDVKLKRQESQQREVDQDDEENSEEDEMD
Briefly: ITC; printed as R239A. Background: ITC needs no label: the signal is the heat of the interaction.

Assay [2] addresses T2, STK4 (residues 1–326) K59R (human, UniProt Q13043 1-326, K59R).
T2 sequence: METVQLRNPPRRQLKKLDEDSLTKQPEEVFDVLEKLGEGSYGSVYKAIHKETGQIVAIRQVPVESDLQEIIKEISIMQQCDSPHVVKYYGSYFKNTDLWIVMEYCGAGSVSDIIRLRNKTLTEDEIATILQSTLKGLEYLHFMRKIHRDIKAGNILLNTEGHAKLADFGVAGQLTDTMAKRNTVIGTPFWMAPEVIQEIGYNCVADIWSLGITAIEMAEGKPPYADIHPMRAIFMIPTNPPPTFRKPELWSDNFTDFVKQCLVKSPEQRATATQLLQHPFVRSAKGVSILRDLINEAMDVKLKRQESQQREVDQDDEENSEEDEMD
Briefly: ITC.

Assay [3] concerns the target T3, STK4 (residues 11–326) K59R (human, UniProt Q13043 11-326, K59R).
T3 sequence: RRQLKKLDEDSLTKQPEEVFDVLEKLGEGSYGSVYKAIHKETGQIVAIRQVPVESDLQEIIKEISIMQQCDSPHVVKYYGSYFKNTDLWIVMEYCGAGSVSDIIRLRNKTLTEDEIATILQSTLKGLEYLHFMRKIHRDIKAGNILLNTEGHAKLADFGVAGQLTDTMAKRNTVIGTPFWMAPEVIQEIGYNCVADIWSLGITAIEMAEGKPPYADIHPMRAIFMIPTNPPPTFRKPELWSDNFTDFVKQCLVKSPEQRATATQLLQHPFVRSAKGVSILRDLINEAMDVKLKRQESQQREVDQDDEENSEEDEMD
Briefly: ITC.

B1: HOIP (residues 854–1072) (domain or fragment)
chain: EYQAQGLAMYLQENGIDCPKCKFSYALARGGCMHFHCTQCRHQFCSGCYNAFYAKNKCPEPNCRVKKSLHGHHPRDCLFYLRDWTALRLQKLLQDNNVMFNTEPPAGARAVPGGGCRVIEQKEVPNGLRDEACGKETPAGYAGLCQAHYKEYLVSLINAHSLDPATLYEVEELETATERYLHVRPQPLAGEDPPAYQARLLQKLTEEVPLGQSIPRRRK
B1 registered a Kd in assay [1] of 149 µM.

B2: HOIP (residues 697–1072) (domain or fragment)
chain: QECAVCGWALPHNRMQALTSCECTICPDCFRQHFTIALKEKHITDMVCPACGRPDLTDDTQLLSYFSTLDIQLRESLEPDAYALFHKKLTEGVLMRDPKFLWCAQCSFGFIYEREQLEATCPQCHQTFCVRCKRQWEEQHRGRSCEDFQNWKRMNDPEYQAQGLAMYLQENGIDCPKCKFSYALARGGCMHFHCTQCRHQFCSGCYNAFYAKNKCPEPNCRVKKSLHGHHPRDCLFYLRDWTALRLQKLLQDNNVMFNTEPPAGARAVPGGGCRVIEQKEVPNGLRDEACGKETPAGYAGLCQAHYKEYLVSLINAHSLDPATLYEVEELETATERYLHVRPQPLAGEDPPAYQARLLQKLTEEVPLGQSIPRRRK
For the molecule B2, the Kd came to 36.4 µM in assay [2] and 34.7 µM in assay [3].
